In this experiment the target is wheat extractable xylanolytic enzymes. The experiment is described as follows: cell-based or functional assay.

With “purified wheat endogenous xylanase inhibitor”, the OD (Xylazyme substrate, xylanase activity; 100 µl xylanolytic extract + 100 µl purified inhibitor; control without inhibitor OD 0.8) came to 0.277 OD; the OD (Xylazyme substrate, xylanase activity; 250 µl xylanolytic extract + 100 µl purified inhibitor; control without inhibitor OD 0.867) was 0.275 OD; the OD (Xylazyme substrate, xylanase activity; 500 µl xylanolytic extract + 100 µl purified inhibitor; control without inhibitor OD 1.031) was 0.414 OD.

Source of the values: patent US20030138522A1.
